B1: Zinc finger homeobox protein 3, residues 2244 to 2299; numbered along this chain, Q15911 (parent)
chain: SSRTRFTDYQLRVLQDFFDANAYPKDDEFEQLSNLLNLPTRVIVVWFQNARQKARK

Variants of: B1
Test: abundance fitness (aPCA) (normalised: wild type 0, dead -1); higher = more abundant; growth selection in yeast, the domain comes from the species named
Settings: Homo sapiens

Abundance fitness, by site and new letter:
N37: K -0.009, F -0.236, M -0.038, E -0.034, G -0.046, I -0.289, P -0.831, Q -0.12, D -0.032, R -0.057, V -0.117, A -0.096
W46: S -0.526, G -0.856, Q -1.17, M -0.81, V -0.88, T -0.611, D -1.14, L -1.09, F -0.244, C -0.759, H -0.617, K -0.764, A -0.86, P -1.07, E -0.749
V42: H 0.022, L 0.039, K -0.036, Y -0.134, G -0.056, I -0.022, D 0.055, Q -0.028, P 0.026, W -0.146, T 0.186, N 0.003, E 0.174, A -0.045, M -0.059, R -0.083, C -0.112
Q48: T -0.168, V -0.066, N -0.259, F -0.245, A -0.146, E 0.086, I -0.085, K -0.034, C -0.221, H -0.407, L -0.309, W -0.554, S -0.022, G -0.029, R -0.071
F47: W -0.399, S -0.75, G -0.66, A -0.729, Q -1.02, H -0.534, T -0.618, E -0.762, L -0.639, C -0.728, P -0.89, R -0.941, V -0.565, N -0.928, Y -0.112, K -0.983, D -0.751, I -0.408
N34: K 0.137, R -0.113, M -0.024, D -0.199, Y -0.161, C -0.343, L -0.17, W -0.61, A 0.067, V 0.001, T -0.145, P -0.137, E 0.118, Q -0.208, G -0.058, S 0.066
T40: C -0.012, F -0.107, K 0.221, Q -0.214, P -0.047, W -0.136, L -0.105, S 0.025, D -0.356, I -0.175, M 0.073, G -0.208, H -0.127, A -0.119, R -0.139
V44: Y -0.571, D 0.121, E -0.059, W -0.084, R -0.093, F -0.174, L -0.005, G 0.034, M -0.031, Q -0.015, S 0.08, A -0.134, K -0.071, H -0.524, I -0.223, T -0.056
L38: F -0.522, E -0.278, D -1.07, M -0.026, R -0.517, G -0.884, T -0.166, N -0.76, C -0.451, V -0.226, H -0.967, S -0.506, K -0.531, Q -0.174, Y -0.625, P -1.03
R41: I 0.052, P -0.046, A 0.022, M 0.005, L -0.075, W -0.167, D 0.173, Y -0.119, K 0.074, N 0.195, Q 0.018, C -0.002, F -0.011, V 0.108, G 0.057, S 0.021, H 0.117
F29: Q -0.435, V -0.102, Y -0.052, M -0.271, N -0.622, P -0.915, R -0.324, W -0.27, S -0.423, T -0.27

— the Human Domainome abundance scans (Beltran et al. 2025)
